This passage reports IC50 results from patent US20100280227A1.

In the assay the target is human BAFF (residues 82-285) (human) (UniProt Q9Y275). As to the kind of experiment: BJAB cell competitive binding assay: soluble BR3-Fc keeps biotin-BAFF from BR3 on the cells.
human BAFF (residues 82-285) (human), sequence (Q9Y275 82-285 limits assumed): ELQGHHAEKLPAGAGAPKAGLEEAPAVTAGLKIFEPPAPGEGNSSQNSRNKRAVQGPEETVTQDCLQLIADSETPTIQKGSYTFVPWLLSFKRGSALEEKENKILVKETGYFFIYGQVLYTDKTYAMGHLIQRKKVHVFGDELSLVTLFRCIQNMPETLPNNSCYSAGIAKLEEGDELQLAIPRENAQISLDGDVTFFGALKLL

The IC50 is the concentration at which inhibition is half-maximal. A higher IC50 goes with weaker potency in that assay. hBR3Fc (Fc fusion) yielded an IC50 of 3.22 nM.
